Settings in all cases: both partners purified
The target in assay [1] is T1, PFV-Gag-NtD (amino terminal domain of Prototypic Foamy Virus Gag, residues 1-179) (Prototypic foamy virus (PFV), UniProt P14349 1-179).
T1 construct: source: E. coli Rosetta 2 (DE3), purified (Ni-NTA, Superdex 200 SEC); not shown: His-tag, N-terminal, kept
T1 sequence: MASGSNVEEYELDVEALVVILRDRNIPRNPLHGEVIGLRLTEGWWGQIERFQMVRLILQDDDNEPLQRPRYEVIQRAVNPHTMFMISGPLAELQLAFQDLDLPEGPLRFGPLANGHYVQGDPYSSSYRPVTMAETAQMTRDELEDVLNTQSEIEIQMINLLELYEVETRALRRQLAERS
As to the kind of experiment: ITC; ITC-200; 1 mM Env peptide in the syringe injected into 50 µM PFV-Gag-NtD in the cell; 25 mM Na-phosphate pH 6.55, 100 mM NaCl, 0.5 mM TCEP. A general note: In ITC the heat of successive injections is recorded.

The target in another assay is T2, PFV-Gag-NtD V18S/L21S (Prototypic foamy virus (PFV), UniProt P14349 1-179, V18S | L21S).
T2 construct: Gag of Prototypic Foamy Virus, residues 1-179 (Gag-NtD) with V18S and L21S
T2 sequence (looked up): T1 sequence with V18S, L21S
The assay is described as follows: AUC; sedimentation velocity of 75 µM equimolar mixtures of Gag-NtD and Env peptide, absorbance at 280 nm; bound fraction from the integrated absorbance of the 3S species in C(S).

For a further assay, the target named is T3, PFV-Gag-NtD V14S (Prototypic foamy virus (PFV), UniProt P14349 1-179, V14S).
T3 construct: Gag of Prototypic Foamy Virus, residues 1-179 (Gag-NtD) with V14S
T3 sequence (looked up): T1 sequence with V14S
Described as above.

Where a chain is given by its changes, count along the chain named.

B1: PFV Env leader peptide residues 1-20 (peptide, UniProt P14351 1-20, looked up)
peptide: MAPPMTLQQWIIWKKMNKAH
notes: Envelope (Env) protein of Prototypic Foamy Virus, N-terminal leader peptide region, residues 1-20 (Met1 to His20); the text names M1, A2, P3, P4, M5, T6, L7, Q9, W10, W13, M16, A19, H20; also called Env_(1-20); Env(1-20); source: synthetic peptide, bought HPLC purified: Pepceuticals Ltd
A word on the stoichiometry N: it is the number of molecules, sites or subunits per partner or assembly. In assay [1], B1 showed a Ka of 150000 M⁻¹. Moreover, the “stoichiometry N” value in assay [1] is 1. In addition, the binding result with PFV-Gag-NtD V18S/L21S and in the assay with PFV-Gag-NtD V14S was “binds” throughout.

The values above are taken from article PMC3649970, “A Unique Spumavirus Gag N-terminal Domain with Functional Properties of Orthoretroviral Matrix and Capsid” (PLoS Pathogens, 2013).
